Measurements as given in article PMC10729150 (Journal for Immunotherapy of Cancer, 2023).
Values belong to the binder of their own block, whether it stands above or below them.

Legend:
[1] = molecular target: T1, Recombinant human CTLA-4-Fc (human, UniProt P16410); experiment: SPR
[2] = molecular target: T1, Recombinant human CTLA-4-Fc; experiment: ELISA

T1 sequence (P16410 36-161): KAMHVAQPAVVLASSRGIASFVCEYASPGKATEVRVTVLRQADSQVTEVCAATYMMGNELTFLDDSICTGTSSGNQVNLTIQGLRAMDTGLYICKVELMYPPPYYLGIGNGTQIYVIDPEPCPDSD

- Kd [1]: 0.091 nM
- Kd [2]: 0.16 nM
B1: XTX100 (antibody, V domains shown)
VH: QVQLVQSGAEVKKPGSSVKVSCKASGYTFTNYFMNWVRQAPGQGLEWMGRVDPEQGRADYAEKFKKRVTITADKSTSTAYMELSSLRSEDTAVYYCARRAMDNYGFAYWGQGTLVTVSS
VL: EIVLTQSPDFQSVTPKEKVTITCSANSALSYMYWYQQKPDQSPKLWVHGTSNLASGVPSRFSGSGSGTDFTLTINSLEAEDAATYYCHHWSNTQWTFGGGTKVEIK

- Kd [1]: 0.127 nM
- Kd [2]: 0.24 nM
B2: XTX101+MMP (proteolytically activated XTX101) (antibody, V domains shown)
VH: B1 VH
VL: B1 VL
